Among the data in US20040087777A1 are OD values, retold here.

Among the targets are … analog, Residue 1 = V; … analog, Residue 3 = K; … analog, Residue 1 = H; … analog, Residue 1 = R.
Common to all, as to test: rNET

Consider murine monoclonal antibody 3D6, for which the OD with … analog, Residue 1 = V worked out at 0.057 OD; with … analog, Residue 3 = K it was 0.053 OD; in the assay with … analog, Residue 1 = H, 0.054 OD; with … analog, Residue 1 = R, 0.056 OD.
